The values that follow are results of earlier work, collected in paper PMC12411175.

The target in this series is insulin receptor (Homo sapiens) (UniProt P06213).
Chain of UniProt P06213 (P06213 763-1382): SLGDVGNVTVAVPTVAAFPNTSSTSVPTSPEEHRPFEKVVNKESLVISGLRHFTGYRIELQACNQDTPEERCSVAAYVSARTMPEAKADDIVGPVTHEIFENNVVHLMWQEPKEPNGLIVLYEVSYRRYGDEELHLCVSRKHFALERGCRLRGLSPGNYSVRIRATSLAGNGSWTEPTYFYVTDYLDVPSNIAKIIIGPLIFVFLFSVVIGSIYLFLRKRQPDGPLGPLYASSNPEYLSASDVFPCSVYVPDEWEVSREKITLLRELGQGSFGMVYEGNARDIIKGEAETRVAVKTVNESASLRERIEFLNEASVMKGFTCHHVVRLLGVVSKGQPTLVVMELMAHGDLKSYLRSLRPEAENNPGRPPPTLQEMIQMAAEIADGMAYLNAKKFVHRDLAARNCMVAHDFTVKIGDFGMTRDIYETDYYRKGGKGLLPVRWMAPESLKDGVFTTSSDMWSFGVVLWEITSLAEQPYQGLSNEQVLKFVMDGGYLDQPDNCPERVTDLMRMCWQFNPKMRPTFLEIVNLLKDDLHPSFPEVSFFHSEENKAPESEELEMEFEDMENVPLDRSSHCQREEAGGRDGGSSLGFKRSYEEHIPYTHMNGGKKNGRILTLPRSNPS

Chain of insulin (P01308 90-110): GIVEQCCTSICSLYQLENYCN

For insulin (from UniProt P01308), the dissociation constant Kd – broadly, the constant that tells how readily two partners part at equilibrium – is 0.02 nM.
